T1: His-OsIRO3 (Oryza sativa (rice), UniProt Q10KL8 1-252)
T1 sequence: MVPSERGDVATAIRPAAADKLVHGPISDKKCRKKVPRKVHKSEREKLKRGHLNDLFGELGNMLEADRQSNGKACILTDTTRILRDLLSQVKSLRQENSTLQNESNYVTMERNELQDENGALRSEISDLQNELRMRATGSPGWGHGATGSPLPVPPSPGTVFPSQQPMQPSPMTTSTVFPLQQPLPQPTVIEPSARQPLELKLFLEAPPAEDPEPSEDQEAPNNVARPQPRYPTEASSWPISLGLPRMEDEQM

B1: pOsIRO2 probe (dsDNA)
DNA 1: CCTCCCTAGCTTGGCAGAATAGTTAATGTTAATCACCTGATTAAA
DNA 2: TTTAATCAGGTGATTAACATTAACTATTCTGCCAAGCTAGGGAGG
B2: pOsIRO2 unlabeled (Cold-Probe) (dsDNA)
DNA 1: CCTCCCTAGCTTGGCAGAATAGTTAATGTTAATCACCTGATTAAA
DNA 2: TTTAATCAGGTGATTAACATTAACTATTCTGCCAAGCTAGGGAGG
B3: mpOsIRO2 (Cold-Probe-m) (dsDNA)
DNA 1: CCTCCCTAGCTTGGCAGAATAGTTAATGTTAATGTCCTGATTAAA
DNA 2: TTTAATCAGGACATTAACATTAACTATTCTGCCAAGCTAGGGAGG
B4: pOsFIT probe (dsDNA)
DNA 1: TCAAGTAGTATTAGTCAATTGGTCATCACATTTCG
DNA 2: CGAAATGTGATGACCAATTGACTAATACTACTTGA

Legend:
His-OsIRO3 [1] = target: T1, His-OsIRO3; experiment: EMSA
His-OsIRO3 [2] = target: T1, His-OsIRO3; experiment: competition
His-OsIRO3 [3] = target: T1, His-OsIRO3; experiment: competition; remark: listed apart in the source

Binder	binding result (His-OsIRO3 [1])	further results
B1	binds	
B2		binding result (His-OsIRO3 [2]): binds
B3		binding result (His-OsIRO3 [3]): no binding
B4	no binding	

From article doi:10.1101/2022.02.14.480324
